Reference: article PMC8464079
Numbering of substitutions follows the chain as printed.

T1: MUT-4G (Caenorhabditis elegans, UniProt Q09487 172-535, N318S;H319N;Q322E)
T1 sequence: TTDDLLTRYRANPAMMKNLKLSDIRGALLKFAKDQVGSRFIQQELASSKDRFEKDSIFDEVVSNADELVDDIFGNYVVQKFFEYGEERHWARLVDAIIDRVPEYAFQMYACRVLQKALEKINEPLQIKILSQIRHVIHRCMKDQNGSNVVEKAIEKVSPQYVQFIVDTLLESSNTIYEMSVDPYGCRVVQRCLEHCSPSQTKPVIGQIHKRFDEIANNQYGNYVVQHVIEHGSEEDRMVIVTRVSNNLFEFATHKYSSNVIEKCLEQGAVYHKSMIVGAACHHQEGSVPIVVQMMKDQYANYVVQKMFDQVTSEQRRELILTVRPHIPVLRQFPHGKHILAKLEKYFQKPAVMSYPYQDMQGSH

T2: MUT-4A (Caenorhabditis elegans, UniProt Q09487 172-535, N318C;H319R)
T2 sequence: T1 sequence with S147C, N148R, E151Q

T3: MUT-4C (Caenorhabditis elegans, UniProt Q09487 172-535, N318C;H319Y;Q322R)
T3 sequence: T1 sequence with S147C, N148Y, E151R

T4: MUT-4N (Caenorhabditis elegans, UniProt Q09487 172-535, N318A;H319A;Q322A)
T4 sequence: T1 sequence with S147A, N148A, E151A

T5: MUT-8G (Caenorhabditis elegans, UniProt Q09487 172-535, N472S;Y473N;Q476E)
T5 sequence: T1 sequence with S147N, N148H, E151Q, N301S, Y302N, Q305E

T6: PUF-8 WT (FP) (Caenorhabditis elegans, UniProt Q09487 172-535)
T6 sequence: T1 sequence with S147N, N148H, E151Q

B1: PBE-1G FAM (ssRNA)
RNA: GGUACAUA
B2: PBE-5U FAM (ssRNA)
RNA: UGUAUAUA
B3: Control RNA FAM (ssRNA)
RNA: AUACAUGU
B4: PBE-5G FAM (ssRNA)
RNA: UGUAGAUA
B5: PBE-5C FAM (ssRNA)
RNA: UGUACAUA

Columns and labels:
Experiment in all cases: fluorescence polarization
MUT-4G = target: T1, MUT-4G
MUT-4A = target: T2, MUT-4A
MUT-4C = target: T3, MUT-4C
MUT-4N = target: T4, MUT-4N
MUT-8G = target: T5, MUT-8G
PUF-8 WT (FP) = target: T6, PUF-8 WT (FP)

Row | Binder | binding result (MUT-4G) | Kd (MUT-4A) [nM] | Kd (MUT-4C) [nM] | binding result (MUT-4N) | binding result (MUT-8G) | Kd (PUF-8 WT (FP)) [nM] | Kd (MUT-4G) [nM] | Kd (MUT-4N) [nM] | binding result (MUT-4A) | binding result (MUT-4C)
1 | B1 | no binding | 159 ± 34.1 | 207 ± 23 | no binding | no binding | 128 ± 25.1 |  |  |  | 
2 | B2 |  | 5.85 ± 1.64 | 3.72 ± 0.94 |  | no binding | 1.27 ± 1.16 | 775 ± 276 | 313 ± 58.2 |  | 
3 | B3 | no binding |  |  | no binding | no binding |  |  |  | no binding | no binding
4 | B4 |  | 9.99 ± 3.11 | 11.3 ± 3.43 |  | no binding | 12.8 ± 5.63 | 29.8 ± 9.14 | 180 ± 22.8 |  | 
5 | B5 |  | 0.64 ± 0.2 | 2.91 ± 0.36 |  | no binding | 0.84 ± 1.08 | 1350 ± 507 | 349 ± 83.2 |  | 
